Source: article PMC2800235

Target: MBP-transposase fusion protein (reconstituted ancestral Hsmar1 transposase) (human (reconstructed ancestral sequence of the human Hsmar1 transposon))
Experiment: SEC

stoichiometry N: 2
Substance: MBP-transposase fusion protein (reconstituted ancestral Hsmar1 transposase) (enzyme)
